Drawing on paper PMC5240567, “New Insights into Cooperative Binding of Homeodomain Transcription Factors PREP1 and PBX1 to DNA”, this text covers Kd for 3 molecules.

Data set [1] concerns the target T1, HOXB1HD;PBX1HD (;, UniProt P14653;P40424 171-266;227-317, |). Nature of the data set: fluorescence polarization; HOXB1HD titrated into preformed PBX1HD:PH; FP and EMSA: 20 mM Na/K phosphate pH 7.2, 150 mM NaCl, 5% glycerol, 1 mM TCEP, room temperature (FP 9 nM DNA, 30 min; EMSA gel run at 4 C in 0.5x TBE); NMR: 20. The note with it: protein: recombinant;recombinant; tags: GST cleaved (pGEX-6P);GST cleaved (pGEX-6P); copies: 1;1; label: 5' 6-FAM (FP); unlabeled in EMSA.

In data set [2] the target is T1, HOXB1HD;PBX1HD. Put plainly: fluorescence polarization; HOXB1HD titrated into preformed PBX1HD:control; FP and EMSA: 20 mM Na/K phosphate pH 7.2, 150 mM NaCl, 5% glycerol, 1 mM TCEP, room temperature (FP 9 nM DNA, 30 min; EMSA gel run at 4 C in 0.5x TBE); NMR: 20. The settings on record: protein: recombinant;recombinant; tags: GST cleaved (pGEX-6P);GST cleaved (pGEX-6P); copies: 1;1; label: 5' 6-FAM (FP); unlabeled in EMSA.

In data set [3] the target is T1, HOXB1HD;PBX1HD. Nature of the data set: fluorescence polarization; HOXB1HD titrated into preformed PBX1HD:PMH; FP and EMSA: 20 mM Na/K phosphate pH 7.2, 150 mM NaCl, 5% glycerol, 1 mM TCEP, room temperature (FP 9 nM DNA, 30 min; EMSA gel run at 4 C in 0.5x TBE); NMR: 20. The note with it: protein: recombinant;recombinant; tags: GST cleaved (pGEX-6P);GST cleaved (pGEX-6P); copies: 1;1; label: 5' 6-FAM (FP); unlabeled in EMSA and NMR.

Data set [4] deals with T2, PREP1HD;PBX1HD (;, UniProt P55347;P40424 240-344;227-317, |).
T2 sequence 1: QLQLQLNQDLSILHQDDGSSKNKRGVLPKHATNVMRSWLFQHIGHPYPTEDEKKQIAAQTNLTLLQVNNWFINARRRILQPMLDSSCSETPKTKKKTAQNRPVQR
T2 sequence 2: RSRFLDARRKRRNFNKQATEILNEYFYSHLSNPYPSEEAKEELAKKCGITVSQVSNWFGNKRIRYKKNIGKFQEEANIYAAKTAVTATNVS
Put plainly: fluorescence polarization; PREP1HD titrated into preformed PBX1HD (0.3 uM):PMH; FP and EMSA: 20 mM Na/K phosphate pH 7.2, 150 mM NaCl, 5% glycerol, 1 mM TCEP, room temperature (FP 9 nM DNA, 30 min; EMSA gel run at 4 C in 0.5x TBE); NMR: 20. The settings on record: protein: recombinant;recombinant; tags: GST cleaved (pGEX-6P);GST cleaved (pGEX-6P); copies: 1;1; label: 5' 6-FAM (FP); unlabeled in EMSA and NMR.

Data set [5] deals with T3, PREP1hd;PBX1HD (;, UniProt P55347;P40424 257-325;227-317, |).
T3 sequence 1: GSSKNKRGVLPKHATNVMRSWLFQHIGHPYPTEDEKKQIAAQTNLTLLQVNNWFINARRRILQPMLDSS
T3 sequence 2: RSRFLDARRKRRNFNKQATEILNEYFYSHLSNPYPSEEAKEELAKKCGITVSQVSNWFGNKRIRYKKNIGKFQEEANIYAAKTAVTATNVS
Put plainly: fluorescence polarization; PREP1hd titrated into preformed PBX1HD (0.3 uM):PMH; FP and EMSA: 20 mM Na/K phosphate pH 7.2, 150 mM NaCl, 5% glycerol, 1 mM TCEP, room temperature (FP 9 nM DNA, 30 min; EMSA gel run at 4 C in 0.5x TBE); NMR: 20. The settings on record: protein: recombinant;recombinant; tags: GST cleaved (pGEX-6P);GST cleaved (pGEX-6P); copies: 1;1; label: 5' 6-FAM (FP); unlabeled in EMSA and NMR.

The target of data set [6] is T4, PREP1HD KKKK->AAAA (UniProt P55347 240-344, K331A;K333A;K334A;K335A).
T4 sequence: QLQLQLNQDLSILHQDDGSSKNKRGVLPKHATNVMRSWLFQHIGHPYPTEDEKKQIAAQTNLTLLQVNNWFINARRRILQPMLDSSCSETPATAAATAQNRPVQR
Nature of the data set: fluorescence polarization; FP and EMSA: 20 mM Na/K phosphate pH 7.2, 150 mM NaCl, 5% glycerol, 1 mM TCEP, room temperature (FP 9 nM DNA, 30 min; EMSA gel run at 4 C in 0.5x TBE); NMR: 20. The settings on record: protein: recombinant; tags: GST cleaved (pGEX-6P); label: 5' 6-FAM (FP); unlabeled in EMSA and NMR.

T1 sequence (P14653 171-266, chain 1 of 2, one chain of several): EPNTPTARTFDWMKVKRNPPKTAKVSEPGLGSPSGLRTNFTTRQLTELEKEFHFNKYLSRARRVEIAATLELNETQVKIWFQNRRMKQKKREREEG

B1: PH (dsDNA)
DNA 1: AGAGTGATTGATAAGG
DNA 2: CCTTATCAATCACTCT
Turning to B1, in data set [1], the equilibrium dissociation constant (Kd) is 390 ± 100 nM.

B2: Control (dsDNA)
DNA 1: AGGATAACCTGGGATT
DNA 2: AATCCCAGGTTATCCT
Regarding B2, in data set [2], the Kd came out at 34.7 ± 1.7 µM.

B3: PMH (dsDNA)
DNA 1: AGTGATTGACAGATTC
DNA 2: GAATCTGTCAATCACT
As for B3, the Kd in data set [3] came out at 1300 ± 300 nM; in data set [4], 1900 ± 500 nM; in data set [5], 5.1 ± 1.8 µM; in data set [6], 21.8 ± 0.8 µM.
